B1: OAS1 (parent)
chain: TPAKSLDKFIEDYLLPDTCFRMQI

Consider 94 variants from the supplement of paper PMC10567573.
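Further: lentivirally expressed fusions sorted by FACS into six bins by GFP to DsRed ratio, PSI derived from sequencing read proportions per bin multiplied by bin number.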

Variants of B1 are the subject of the data set. Description: protein stability index of a GFP-peptide fusion (GPS, HEK-293T) (PSI 1-6); higher = more stable. The settings on record: c terminus: a fixed tail appended.
With TPAMSLDKFIEDYLLPDTCFRMQI [K4M], the protein stability index amounted to 1.67.

Regarding TPAKSLDKFQEDYLLPDTCFRMQI [I10Q], the protein stability index came to 1.67.

With TPAKSLDKFMEDYLLPDTCFRMQI [I10M], the protein stability index came to 3.83.

For the variant TPAKSLDKFREDYLLPDTCFRMQI [I10R], the protein stability index was determined as 2.78.

For the variant TPAKSLDKFAEDYLLPDTCFRMQI [I10A], the protein stability index came to 2.48.

As to TPAKSLDKFYEDYLLPDTCFRMQI [I10Y], the protein stability index was found to be 2.38.

As for TPAKSLDKFEEDYLLPDTCFRMQI [I10E], the protein stability index was 2.52.

Consider TPAKSLDKFPEDYLLPDTCFRMQI [I10P], for which the protein stability index was 1.87.

For TPAKSLDKFFEDYLLPDTCFRMQI [I10F], the protein stability index was determined as 3.41.

On to TPAKSLDKFTEDYLLPDTCFRMQI [I10T], for which the protein stability index was determined as 2.35.

Regarding TPAKSLDKFGEDYLLPDTCFRMQI [I10G], the protein stability index was 2.23.

In the case of TPAKSLDKFLEDYLLPDTCFRMQI [I10L], the protein stability index amounted to 3.56.

On to TPAKSLDKFDEDYLLPDTCFRMQI [I10D], for which the protein stability index is 1.55.

Consider TPAKSLDKFVEDYLLPDTCFRMQI [I10V], for which the protein stability index was found to be 3.54.

For the variant TPAKSLDKFKEDYLLPDTCFRMQI [I10K], the protein stability index is 1.31.

Regarding TPAKSLDKFHEDYLLPDTCFRMQI [I10H], the protein stability index was determined as 1.92.

For TPAKSLDKFCEDYLLPDTCFRMQI [I10C], the protein stability index stood at 3.19.

On to TPAKSLDKFSEDYLLPDTCFRMQI [I10S], for which the protein stability index was 1.7.

For TPAKSLDKFNEDYLLPDTCFRMQI [I10N], the protein stability index was found to be 1.51.

In the case of TPAKSLDAFIEDYLLPDTCFRMQI [K8A], the protein stability index is 2.58.

For TPAKSLDLFIEDYLLPDTCFRMQI [K8L], the protein stability index stood at 3.06.

As for TPAKSLDSFIEDYLLPDTCFRMQI [K8S], the protein stability index worked out at 2.43.

With TPAKSLDTFIEDYLLPDTCFRMQI [K8T], the protein stability index was found to be 3.17.

Consider TPAKSLDMFIEDYLLPDTCFRMQI [K8M], for which the protein stability index worked out at 2.04.

On to TPAKSLDEFIEDYLLPDTCFRMQI [K8E], for which the protein stability index amounted to 3.06.

As to TPAKSLDCFIEDYLLPDTCFRMQI [K8C], the protein stability index worked out at 2.99.

With TPAKSLDWFIEDYLLPDTCFRMQI [K8W], the protein stability index is 1.98.

Take TPAKSLDGFIEDYLLPDTCFRMQI [K8G]: the protein stability index is 1.62.

Take TPAKSLDPFIEDYLLPDTCFRMQI [K8P]: the protein stability index was determined as 3.17.

TPAKSLDQFIEDYLLPDTCFRMQI [K8Q]: the protein stability index was 1.68.

Consider TPAKSLDVFIEDYLLPDTCFRMQI [K8V], for which the protein stability index stood at 3.42.

TPAKSLDRFIEDYLLPDTCFRMQI [K8R]: the protein stability index worked out at 3.07.

TPAKSLDDFIEDYLLPDTCFRMQI [K8D]: the protein stability index came out at 2.58.

For TPAKSLDHFIEDYLLPDTCFRMQI [K8H], the protein stability index was 1.77.

With TPAKSLDNFIEDYLLPDTCFRMQI [K8N], the protein stability index was 2.09.

TPTKSLDKFIEDYLLPDTCFRMQI [A3T]: the protein stability index is 1.64.

On to TPHKSLDKFIEDYLLPDTCFRMQI [A3H], for which the protein stability index was 2.99.

Turning to TPGKSLDKFIEDYLLPDTCFRMQI [A3G], the protein stability index is 3.77.

As to TPFKSLDKFIEDYLLPDTCFRMQI [A3F], the protein stability index was 3.88.

Consider TPMKSLDKFIEDYLLPDTCFRMQI [A3M], for which the protein stability index is 2.11.

TPSKSLDKFIEDYLLPDTCFRMQI [A3S]: the protein stability index was determined as 2.42.

With TPDKSLDKFIEDYLLPDTCFRMQI [A3D], the protein stability index was 1.54.

Take TPWKSLDKFIEDYLLPDTCFRMQI [A3W]: the protein stability index turned out to be 2.58.

TPNKSLDKFIEDYLLPDTCFRMQI [A3N]: the protein stability index amounted to 2.47.

For the variant TPIKSLDKFIEDYLLPDTCFRMQI [A3I], the protein stability index was determined as 3.83.

Take TPRKSLDKFIEDYLLPDTCFRMQI [A3R]: the protein stability index came to 2.23.

On to TPLKSLDKFIEDYLLPDTCFRMQI [A3L], for which the protein stability index worked out at 2.85.

Turning to TPKKSLDKFIEDYLLPDTCFRMQI [A3K], the protein stability index came to 2.57.

Consider TPPKSLDKFIEDYLLPDTCFRMQI [A3P], for which the protein stability index was found to be 2.49.

As to TPYKSLDKFIEDYLLPDTCFRMQI [A3Y], the protein stability index worked out at 1.96.

TPVKSLDKFIEDYLLPDTCFRMQI [A3V]: the protein stability index is 3.63.

With TPQKSLDKFIEDYLLPDTCFRMQI [A3Q], the protein stability index was found to be 2.56.

For the variant TPEKSLDKFIEDYLLPDTCFRMQI [A3E], the protein stability index is 2.88.

On to TPCKSLDKFIEDYLLPDTCFRMQI [A3C], for which the protein stability index was determined as 3.23.

Regarding WPAKSLDKFIEDYLLPDTCFRMQI [T1W], the protein stability index came to 2.39.

With VPAKSLDKFIEDYLLPDTCFRMQI [T1V], the protein stability index was determined as 1.06.

With SPAKSLDKFIEDYLLPDTCFRMQI [T1S], the protein stability index amounted to 2.13.

Regarding PPAKSLDKFIEDYLLPDTCFRMQI [T1P], the protein stability index came out at 2.51.

In the case of QPAKSLDKFIEDYLLPDTCFRMQI [T1Q], the protein stability index amounted to 2.42.

With YPAKSLDKFIEDYLLPDTCFRMQI [T1Y], the protein stability index stood at 2.84.

As to RPAKSLDKFIEDYLLPDTCFRMQI [T1R], the protein stability index is 4.07.

Regarding TPAKSADKFIEDYLLPDTCFRMQI [L6A], the protein stability index came out at 2.89.

Turning to TPAKSYDKFIEDYLLPDTCFRMQI [L6Y], the protein stability index stood at 3.

On to TPAKSVDKFIEDYLLPDTCFRMQI [L6V], for which the protein stability index was determined as 1.97.

As for TPAKSCDKFIEDYLLPDTCFRMQI [L6C], the protein stability index is 2.68.

With TPAKSMDKFIEDYLLPDTCFRMQI [L6M], the protein stability index is 2.18.

As to TPAKSPDKFIEDYLLPDTCFRMQI [L6P], the protein stability index is 2.43.

For the variant TPAKSRDKFIEDYLLPDTCFRMQI [L6R], the protein stability index stood at 2.55.

As for TPAKSHDKFIEDYLLPDTCFRMQI [L6H], the protein stability index was 2.66.

For TPAKSDDKFIEDYLLPDTCFRMQI [L6D], the protein stability index is 1.38.

As to TPAKSQDKFIEDYLLPDTCFRMQI [L6Q], the protein stability index came to 2.47.

For TPAKSEDKFIEDYLLPDTCFRMQI [L6E], the protein stability index was determined as 1.49.

With TPAKSNDKFIEDYLLPDTCFRMQI [L6N], the protein stability index came out at 2.45.

For TPAKSKDKFIEDYLLPDTCFRMQI [L6K], the protein stability index was determined as 1.61.

On to TPAKSFDKFIEDYLLPDTCFRMQI [L6F], for which the protein stability index was found to be 4.79.

As to TPAKSWDKFIEDYLLPDTCFRMQI [L6W], the protein stability index worked out at 2.19.

Consider TPAKSIDKFIEDYLLPDTCFRMQI [L6I], for which the protein stability index was 3.63.

Consider TPAKSSDKFIEDYLLPDTCFRMQI [L6S], for which the protein stability index was 1.94.

With TPAKSTDKFIEDYLLPDTCFRMQI [L6T], the protein stability index was found to be 3.08.

As to TPAKSLHKFIEDYLLPDTCFRMQI [D7H], the protein stability index amounted to 3.9.

Take TPAKSLLKFIEDYLLPDTCFRMQI [D7L]: the protein stability index amounted to 2.42.

For the variant TPAKSLNKFIEDYLLPDTCFRMQI [D7N], the protein stability index came out at 2.1.

In the case of TPAKSLAKFIEDYLLPDTCFRMQI [D7A], the protein stability index is 2.77.

For TPAKSLCKFIEDYLLPDTCFRMQI [D7C], the protein stability index is 2.77.

On to TPAKSLPKFIEDYLLPDTCFRMQI [D7P], for which the protein stability index amounted to 1.73.

TPAKSLKKFIEDYLLPDTCFRMQI [D7K]: the protein stability index was found to be 2.05.

For TPAKSLYKFIEDYLLPDTCFRMQI [D7Y], the protein stability index was determined as 2.21.

With TPAKSLWKFIEDYLLPDTCFRMQI [D7W], the protein stability index was 3.11.

Take TPAKSLQKFIEDYLLPDTCFRMQI [D7Q]: the protein stability index stood at 2.94.

Consider TPAKSLIKFIEDYLLPDTCFRMQI [D7I], for which the protein stability index was found to be 2.96.

Regarding TPAKSLSKFIEDYLLPDTCFRMQI [D7S], the protein stability index came to 3.08.

Turning to TPAKSLTKFIEDYLLPDTCFRMQI [D7T], the protein stability index was found to be 1.25.

For the variant TPAKSLMKFIEDYLLPDTCFRMQI [D7M], the protein stability index was 2.87.

For TPAKSLRKFIEDYLLPDTCFRMQI [D7R], the protein stability index was determined as 2.9.
